Results as given in the Immune Epitope Database (IEDB).

Legend:
HLA-B*15:03 = experiment: IEDB peptide-MHC binding, purified MHC/competitive/radioactivity; filed as Kd, often an IC50 or EC50 that approximates it; ≥ and ≤ were set here for values at or beyond the usual limits of such assays
HLA-B*18:01 [1] = experiment: IEDB peptide-MHC binding, purified MHC/direct/fluorescence; filed as Kd, often an IC50 or EC50 that approximates it; ≥ and ≤ were set here for values at or beyond the usual limits of such assays; conditions: source organism: Entamoeba histolytica HM-1:IMSS
HLA-B*40:01 [2] = experiment: as above; conditions: source organism: Entamoeba histolytica HM-1:IMSS
HLA-B*44:02 = experiment: IEDB peptide-MHC binding, purified MHC/competitive/radioactivity; filed as Kd, often an IC50 or EC50 that approximates it; ≥ and ≤ were set here for values at or beyond the usual limits of such assays
HLA-B*18:01 [3] = experiment: as above
HLA-B*40:02 = experiment: as above
HLA-B*40:01 [4] = experiment: as above
HLA-B*45:01 = experiment: as above
HLA-B*44:03 = experiment: as above
HLA-B*15:01 = experiment: as above
HLA-B*08:01 = experiment: as above
HLA-A*32:01 = experiment: as above
HLA-A*30:01 = experiment: as above
HLA-A*68:02 = experiment: as above
HLA-A*31:01 = experiment: as above
HLA-B*51:01 = experiment: as above
HLA-A*02:02 = experiment: as above
HLA-A*02:01 = experiment: as above
HLA-B*35:01 = experiment: as above
HLA-A*68:01 = experiment: as above
HLA-A*02:03 = experiment: as above
HLA-B*53:01 = experiment: as above
HLA-A*11:01 = experiment: as above
HLA-B*54:01 = experiment: as above
HLA-A*03:01 = experiment: as above
HLA-A*33:01 = experiment: as above
HLA-A*01:01 = experiment: as above
HLA-A*02:06 = experiment: as above
HLA-B*07:02 = experiment: as above
HLA-A*29:02 = experiment: as above; conditions: source organism: Vaccinia virus WR
HLA-A*30:02 = experiment: as above; conditions: source organism: Vaccinia virus WR
HLA-A*24:02 = experiment: as above; conditions: source organism: Vaccinia virus WR
HLA-A*26:01 = experiment: as above; conditions: source organism: Vaccinia virus WR
HLA-A*23:01 = experiment: as above; conditions: source organism: Vaccinia virus WR
[5] = source organism: Vaccinia virus WR
[6] = source organism: SARS coronavirus Tor2
[7] = source organism: Mammarenavirus juninense
[8] = source organism: Hepacivirus hominis
[9] = source organism: Mammarenavirus lassaense
[10] = source organism: Mammarenavirus machupoense
[11] = source organism: Mammarenavirus brazilense
[12] = source organism: Vaccinia virus Copenhagen

IKFAAGIII
Kd (HLA-B*15:03; [5]): 16 nM

SSVREVFYF
Kd (HLA-B*15:03; [5]): 123 nM

FMLMETMFF
Kd (HLA-B*15:03; [5]): 0.188 nM

YEYVLIGIL
Kd (HLA-B*18:01 [1]): 4 nM | Kd (HLA-B*40:01 [2]): ≤ 1 nM

GEENFSSRMY
Kd (HLA-B*44:02; [6]): 58.1 nM | Kd (HLA-B*18:01 [3]; [6]): 3940 nM | Kd (HLA-B*40:02; [6]): 14200 nM | Kd (HLA-B*40:01 [4]; [6]): 8440 nM | Kd (HLA-B*45:01; [6]): 3210 nM | Kd (HLA-B*44:03; [6]): 68.3 nM

DELGNILSVY
Kd (HLA-B*44:02; [7]): 7440 nM | Kd (HLA-B*18:01 [3]; [7]): 8.98 nM | Kd (HLA-B*40:02; [7]): 14100 nM | Kd (HLA-B*40:01 [4]; [7]): ≥ 69500 nM | Kd (HLA-B*45:01; [7]): ≥ 70000 nM | Kd (HLA-B*44:03; [7]): 1210 nM

FPKNDFVSF
Kd (HLA-B*15:01; [5]): 10.4 nM | Kd (HLA-B*15:03; [5]): 4.22 nM | Kd (HLA-B*08:01; [5]): 15.5 nM | Kd (HLA-A*32:01; [5]): ≥ 53700 nM | Kd (HLA-A*30:01; [5]): 9120 nM

KIGMFNLTF
Kd (HLA-B*15:01; [5]): 0.209 nM | Kd (HLA-B*15:03; [5]): 12.6 nM | Kd (HLA-B*08:01; [5]): ≥ 36100 nM | Kd (HLA-A*32:01; [5]): 0.268 nM | Kd (HLA-A*30:01; [5]): 4760 nM

HSKKKCDDL
Kd (HLA-A*68:02; [8]): ≥ 69800 nM | Kd (HLA-A*31:01; [8]): ≥ 77900 nM | Kd (HLA-B*51:01; [8]): ≥ 51900 nM | Kd (HLA-A*02:02; [8]): ≥ 70000 nM | Kd (HLA-B*08:01; [8]): ≥ 57700 nM | Kd (HLA-A*02:01; [8]): ≥ 69400 nM | Kd (HLA-B*35:01; [8]): ≥ 77400 nM | Kd (HLA-A*68:01; [8]): ≥ 77700 nM | Kd (HLA-A*02:03; [8]): ≥ 70400 nM | Kd (HLA-B*53:01; [8]): ≥ 57000 nM | Kd (HLA-A*11:01; [8]): ≥ 77900 nM | Kd (HLA-B*54:01; [8]): ≥ 78100 nM | Kd (HLA-A*03:01; [8]): ≥ 78000 nM | Kd (HLA-A*33:01; [8]): ≥ 77700 nM | Kd (HLA-A*01:01; [8]): ≥ 53900 nM | Kd (HLA-A*02:06; [8]): ≥ 77100 nM | Kd (HLA-B*07:02; [8]): ≥ 66800 nM

KEQLQLLMPL
Kd (HLA-B*44:02; [6]): 269 nM | Kd (HLA-B*18:01 [3]; [6]): 184 nM | Kd (HLA-B*40:02; [6]): 5.23 nM | Kd (HLA-B*40:01 [4]; [6]): 157 nM | Kd (HLA-B*45:01; [6]): 121 nM | Kd (HLA-B*44:03; [6]): 49.1 nM

SDRVVFVLWA
Kd (HLA-B*44:02; [6]): 654 nM | Kd (HLA-B*18:01 [3]; [6]): ≥ 26400 nM | Kd (HLA-B*40:02; [6]): 16700 nM | Kd (HLA-B*40:01 [4]; [6]): 14700 nM | Kd (HLA-B*45:01; [6]): 1950 nM | Kd (HLA-B*44:03; [6]): 736 nM

AESHMDADLA
Kd (HLA-B*44:02; [6]): 1330 nM | Kd (HLA-B*18:01 [3]; [6]): ≥ 48000 nM | Kd (HLA-B*40:02; [6]): 63.1 nM | Kd (HLA-B*40:01 [4]; [6]): 163 nM | Kd (HLA-B*45:01; [6]): 8.31 nM | Kd (HLA-B*44:03; [6]): 1120 nM

SLTIKDSSNK
Kd (HLA-A*68:02; [5]): ≥ 69800 nM | Kd (HLA-A*31:01; [5]): ≥ 70000 nM | Kd (HLA-B*51:01; [5]): ≥ 69600 nM | Kd (HLA-A*02:02; [5]): ≥ 70000 nM | Kd (HLA-A*02:01; [5]): ≥ 69400 nM | Kd (HLA-B*35:01; [5]): ≥ 46500 nM | Kd (HLA-A*68:01; [5]): ≥ 52700 nM | Kd (HLA-A*02:03; [5]): ≥ 70400 nM | Kd (HLA-B*53:01; [5]): ≥ 69900 nM | Kd (HLA-A*11:01; [5]): ≥ 25300 nM | Kd (HLA-B*54:01; [5]): ≥ 69900 nM | Kd (HLA-A*03:01; [5]): 9780 nM | Kd (HLA-A*33:01; [5]): ≥ 70000 nM | Kd (HLA-A*02:06; [5]): ≥ 69800 nM | Kd (HLA-B*07:02; [5]): ≥ 52300 nM

KDPLITSGC
Kd (HLA-B*44:02; [9]): ≥ 77900 nM | Kd (HLA-B*18:01 [3]; [9]): ≥ 77500 nM | Kd (HLA-B*40:02; [9]): 4500 nM | Kd (HLA-B*40:01 [4]; [9]): 17300 nM | Kd (HLA-B*45:01; [9]): ≥ 77100 nM | Kd (HLA-B*44:03; [9]): ≥ 78100 nM

FELCDNPFF
Kd (HLA-B*44:02; [6]): 32.1 nM | Kd (HLA-B*18:01 [3]; [6]): 211 nM | Kd (HLA-B*40:02; [6]): 95.6 nM | Kd (HLA-B*40:01 [4]; [6]): 35.1 nM | Kd (HLA-B*45:01; [6]): 17700 nM | Kd (HLA-B*44:03; [6]): 58.2 nM

PEIWLQLNTL
Kd (HLA-B*44:02; [10]): 10200 nM | Kd (HLA-B*18:01 [3]; [10]): 19700 nM | Kd (HLA-B*40:02; [10]): 109 nM | Kd (HLA-B*40:01 [4]; [10]): 4450 nM | Kd (HLA-B*45:01; [10]): 12200 nM | Kd (HLA-B*44:03; [10]): 8120 nM

PDFNELFQL
Kd (HLA-B*44:02; [11]): ≥ 29000 nM | Kd (HLA-B*18:01 [3]; [11]): ≥ 77500 nM | Kd (HLA-B*40:02; [11]): 1680 nM | Kd (HLA-B*40:01 [4]; [11]): ≥ 23600 nM | Kd (HLA-B*45:01; [11]): ≥ 77700 nM | Kd (HLA-B*44:03; [11]): ≥ 22900 nM

RLYSEGLSI
Kd (HLA-B*15:01; [5]): 4.53 nM | Kd (HLA-B*15:03; [5]): 31.9 nM

RIRRFRRPM
Kd (HLA-B*15:01; [5]): 36.2 nM | Kd (HLA-B*15:03; [5]): 30.2 nM | Kd (HLA-B*08:01; [5]): 8.94 nM | Kd (HLA-A*32:01; [5]): 769 nM | Kd (HLA-A*30:01; [5]): 4.4 nM

KTSTLIFFV
Kd (HLA-A*68:02; [5]): 47.2 nM | Kd (HLA-B*51:01; [5]): 11400 nM | Kd (HLA-A*29:02): 2650 nM | Kd (HLA-A*02:02; [5]): 1.38 nM | Kd (HLA-A*30:02): 251 nM | Kd (HLA-B*35:01; [5]): ≥ 35800 nM | Kd (HLA-A*02:03; [5]): 156 nM | Kd (HLA-A*24:02): 6600 nM | Kd (HLA-B*53:01; [5]): 15000 nM | Kd (HLA-B*54:01; [5]): 13800 nM | Kd (HLA-A*26:01): 4810 nM | Kd (HLA-A*23:01): 9120 nM | Kd (HLA-A*01:01; [5]): 1880 nM | Kd (HLA-A*02:06; [5]): 1.76 nM | Kd (HLA-B*07:02; [5]): ≥ 30500 nM

YTLYKKLSF
Kd (HLA-B*15:01; [12]): 14.3 nM | Kd (HLA-B*15:03; [12]): 38.2 nM | Kd (HLA-B*08:01; [12]): 16.3 nM | Kd (HLA-A*32:01; [12]): 194 nM | Kd (HLA-A*30:01; [12]): 22.6 nM

EEVNIDNSF
Kd (HLA-B*15:03; [5]): 1200 nM

SQYLSRVSL
Kd (HLA-B*15:03; [5]): 0.235 nM

SSRRYRCSF
Kd (HLA-B*15:01; [5]): 682 nM | Kd (HLA-B*15:03; [5]): 54.5 nM | Kd (HLA-B*08:01; [5]): 11.5 nM

LKSVETSSL
Kd (HLA-B*15:03; [12]): 3.76 nM

MMSMYGKAF
Kd (HLA-B*15:01; [5]): 3.18 nM | Kd (HLA-B*15:03; [5]): 2.61 nM

NLLCHIYSL
Kd (HLA-B*15:01; [5]): 1930 nM | Kd (HLA-B*15:03; [5]): 2030 nM | Kd (HLA-B*08:01; [5]): 0.307 nM | Kd (HLA-A*32:01; [5]): 231 nM | Kd (HLA-A*30:01; [5]): 56.3 nM

LPVIFLSIF
Kd (HLA-B*15:03; [5]): 162 nM

CLNNSLMSF
Kd (HLA-B*15:03; [12]): 0.768 nM

KTSSFKISK
Kd (HLA-B*15:01; [5]): ≥ 62200 nM | Kd (HLA-B*15:03; [5]): ≥ 68000 nM | Kd (HLA-B*08:01; [5]): ≥ 31400 nM | Kd (HLA-A*32:01; [5]): ≥ 23000 nM | Kd (HLA-A*30:01; [5]): 88.1 nM

FIKNKIHLL
Kd (HLA-B*15:01; [5]): 97.7 nM | Kd (HLA-B*15:03; [5]): 6910 nM | Kd (HLA-B*08:01; [5]): 0.821 nM | Kd (HLA-A*32:01; [5]): 2810 nM | Kd (HLA-A*30:01; [5]): 2520 nM

KKVIGFVSI
Kd (HLA-B*15:03; [5]): 7.49 nM

IMALIVSIF
Kd (HLA-B*15:03; source organism: Vaccinia virus): 4.53 nM
